The conditions of series [1]: Table 4, cited from earlier work.
A further series concerns the target T1, mouse recombinant IFN-γ (Mus musculus, UniProt P01580).
T1 sequence (P01580 23-155): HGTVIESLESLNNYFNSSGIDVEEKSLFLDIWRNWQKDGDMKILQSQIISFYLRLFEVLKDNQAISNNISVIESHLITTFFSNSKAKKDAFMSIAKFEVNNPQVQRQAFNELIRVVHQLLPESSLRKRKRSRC
Briefly: Bioactivity of protease-treated mouse IFN-γ (NO production by C2C12 cells). The class given is cell-based. The procedure: Effects of three purified A. oryzae proteases on the bioactivity of mouse IFN-γ: (A) protease powder prepared according to Example 1 (preparation); (B) alkaline protease; (C) 26 kDa protease; and (D) deuterolysin. 50 ng quantities of mouse recombinant IFN-γ were incubated for 24 hours at 37° C. with either buffer or 2.5-10 ng of the indicated protease: (∘) Buffer; (▴) 2.5 ng; ([…]) 5 ng; (▪) 10 ng. IFN-γ bioactivity was determined as conduction of NO production by C2C12 cells.
To evaluate the specificity of this effect, the three Aspergillus oryzae proteases were tested for their ability to inactivate mouse IFN-γ, and a different pattern was seen. […] This was an unexpected finding given the ability of alkaline protease to cause partial proteolysis of IFN-γ.

The nature of series [2]: Hydrolysis of D-val-leu-lys-pNA (kinetic absorbance assay). Format: biochemical. To be noted: 20 mM Tris-HCl buffer, pH 7, absorbance at 405 nm. The procedure: Specific activity of the purified enzymes was determined by measuring hydrolysis of protamine sulfate and D-val-leu-lys-pNA. For the former, enzyme-substrate mixtures were prepared in 20 mM Tris-HCl, pH 7 or 8, and incubated for 30 min at 37° C. […] Hydrolysis of D-val-leu-lys-pNA in 20 mM Tris-HCl buffer, pH 7, was determined by measuring absorbance at 405 nm wavelength every 10 sec over 10 min and calculating the change in absorbance (mOD units) per min per μg protein.

Another series relates to Salmon protamine. Briefly: Hydrolysis of salmon protamine sulfate (ninhydrin assay). Format: biochemical. The conditions noted are these: 20 mM Tris-HCl, pH 7 or 8, 30 min at 37° C. The procedure:
Specific activity of the purified enzymes was determined by measuring hydrolysis of protamine sulfate and D-val-leu-lys-pNA. For the former, enzyme-substrate mixtures were prepared in 20 mM Tris-HCl, pH 7 or 8, and incubated for 30 min at 37° C. After precipitation with 14% trichloroacetic acid and removal of precipitated protein by centrifugation, the reaction mixtures were diluted in 500 mM sodium citrate buffer, pH 5, combined with 2% ninhydrin and boiled for 30 min. After dilution in 50% isopropanol, absorbance was measured at 570 nm wavelength, and results were referenced to leucine as a standard. Hydrolysis of D-val-leu-lys-pNA in 20 mM Tris-HCl buffer, pH 7, was determined by measuring absorbance at 405 nm wavelength every 10 sec over 10 min and calculating the change in absorbance (mOD units) per min per μg protein.
Protamine sulfate from salmon (Sigma, St. Louis, Mo.): 1% (10 mg/ml) solution in reaction buffer. Fushima et al use 2% and denature the protein by boiling for 30 min in 100 mM phosphate buffer, pH 7.0. […]
Procedure • 1. […] Read Absorbance at 570 nm (purple color) and calculate nanomoles by reference to a standard curve prepared with leucine. […] Activity of enzyme is expressed as nanomoles of leucine equivalents released per milligram of protein (endpoint assay) or nanomoles of leucine equivalents/min/μg protein (kinetic assay). • 10. […]

In the next series the target is human TNF-α (Homo sapiens, UniProt P01375). Briefly: Bioactivity of protease-treated human TNF-α in the C2C12 cell assay (nitrite). Format: cell-based. Also noted: key to Inactivation of Human TNF-α: +: Indicates that the protease inactivated the cytokine; ^a: Cleavage of the cytokine occurred without inactivation. The conditions noted are these: for Effect on bioactivity of human TNF-α: C2C12 cells costimulated with mouse IFN-γ, nitrite. The procedure:
Effects of purified A. oryzae proteases on the bioactivity of human TNF-α (A) protease powder prepared according to Example 1 (preparation); (B) alkaline protease; (C) 26 kDa protease; and (D) deuterolysin. 50 ng quantities of TNF-α were incubated at 37° C. for 24 hours with the indicated quantities (∘=buffer alone; […]=5 ng; ▪=10 ng) of: protease powder prepared according to Example 1 (preparation); alkaline protease; 26 kDa protease; and deuterolysin. The reactions were then stopped by addition of FBS and samples were added to C2C12 cells that had been costimulated with mouse IFN-γ. Twenty-four hours later, nitrite was measured in culture fluids.
Protease-treated human TNF-α was then tested for its bioactivity in the C2C12 cell assay. […] (FIG. 12A-D)
The protease powder prepared according to Example 1 inactivates mouse recombinant TNF-α by limited proteolysis. (FIG. 16 A-B) This property was established by measuring the loss of activity of TNF-α in a bioassay in which the cytokine was used to coactivate mouse myoblast C2C12 cells for the production of NO by transcriptional activation of the inducible NO synthase (iNOS) gene. The assay can be used to measure either TNF-α or IFN-γ activity by adding test samples containing one of the cytokines to cells stimulated with an excess of the other cytokine. Nitrite is a stable endproduct of NO produced by the cells. […] (FIG. 16A-B).

Sequence of human TNF-α (P01375 77-233 limits assumed): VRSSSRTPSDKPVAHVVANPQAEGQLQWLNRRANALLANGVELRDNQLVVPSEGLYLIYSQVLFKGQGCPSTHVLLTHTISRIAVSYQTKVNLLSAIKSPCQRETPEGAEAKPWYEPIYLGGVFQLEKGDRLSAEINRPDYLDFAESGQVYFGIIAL

B1: Alkaline Protease: Aspergillus oryzae alkaline protease (oryzin), SEQ ID NO: 2, purified from the protease powder of Example 1 (protein, listed as Aspergillus oryzae)
chain: MQSIKRTLLLLGAILPAVLGAPVQETRRAAEKLPGKYIVTFKPGIDEAKIQEHTTWATNIHQRSLERRGATGGDLPVGIERNYKINKFAAYAGSFDDATIEEIRKNEDVAYVEEDQIYYLDGLTTQKSAPWGLGSISHKGQQSTDYIYDTSAGEGTYAYVVDSGVNVDHEEFEGRASKAYNAAGGQHVDSIGHGTHVSGTIAGKTYGIAKKASILSVKVFQGESSSTSVILDGFNWAANDIVSKKRTSKAAINMSLGGGYSKAFNDAVENAFEQGVLSVVAAGNENSDAGQTSPASAPDAITVAAIQKSNNRASFSNFGKVVDVFAPGQDILSAWIGSSSATNTISGTSMATPHIVGLSLYLAALENLDGPAAVTKRIKELATKDWKDVKGSPNLLAYNGNA
Turning to B1, in series [1], the pI is recorded as 6.53. Further, the Heat stability result in series [1] (deuterolysin for 10 min, alkaline protease for 3 h) is “Stable at 37 °C”. Moreover, the “Effect on bioactivity of mouse IFN-γ” value with mouse recombinant IFN-γ was “did not significantly affect the activity of mouse IFN-γ”. Further, in series [2], the “Specific activity, Val-leu-lys-pNA” value turned out to be 116.7 mOD/min/μg protein. Besides, in the series with Salmon protamine, the “Specific activity, Salmon protamine” value was 951 nmoles Leucine/30 min./μg protein. Further, the “Effect on bioactivity of human TNF-α” value in the series with human TNF-α is reported as “selectively inactivated human TNF-α”. In addition, in the series with human TNF-α (Table 7 summary), the “Inactivation of Human TNF-α” value was “+”.

B2: 26 kDa Protease: A. oryzae protease cloned recently by Novozyme, labeled the 26 kDa protease, SEQ ID NO: 3 (protein, listed as Aspergillus oryzae)
chain: HASADAWASSKAISSTSSPSSFKMRFISVSSLLLALAPALNAVPVEVAGSAQGLDVTLSQVGNTRIKAWKNTGSEDVTFVHLNFFKDAAPVQKVSLFRNATEVQFQGIKQRLITEGLSDDALTTLAPGATIEDEFDIASTSDLSEGGTITINSNGLVPITTDNKVTGYIPFTSNELSIDVDAAEAASVTQAVKILERRTKVTSCSGSRLSALQTALRNTVSLARAAATAAQSGSSSRFQEYFKTTSSSTRSTVAARLNAVANEAASTSSGSTTYYCSDVYGYCSSNVLAYTLPSYNIIANCDLYYSYLPALTSTCHAQDQATTTLHEFTHAPGVYSPGTDDLGYGYSAATALSASQALLNADTYALFANAVNLNC
On to B2, for which the pI in series [1] is reported as 6.72. Moreover, the “Effect on bioactivity of mouse IFN-γ” value with mouse recombinant IFN-γ is listed as “primarily associated with the 26 kDa protease”. Also, in series [2], the “Specific activity, Val-leu-lys-pNA” value was found to be 2.1 mOD/min/μg protein. In addition, in the series on Salmon protamine, the “Specific activity, Salmon protamine” value is listed as 679 nmoles Leucine/30 min./μg protein. In addition, the “Effect on bioactivity of human TNF-α” value in the series with human TNF-α is listed as “did not significantly alter the biological activity of the cytokine”.

These data come from patent publication US20090068174A1, “THERAPEUTIC ALKALINE PROTEASE COMPOSITIONS AND USE IN FACILITATING THE TRANSPORT OF AGENTS ACROSS THE GASTROINTESTINAL MUCOSAL LINING” (Kansas University Medical Center Research Institute, Inc., priority 2007, published 2009).
